{
  "source": "patent US20260258115A1",
  "about": "(MAPP BIOPHARMACEUTICAL, published 2026)",
  "data": [
    {"molecular_target": "RSV prefusion F (preF), subtype B (respiratory syncytial virus, subtype B)", "experiment": "BLI, IgG", "units": {"Kd": "nM"}, "values": [
      {"binder": "ADI-21005 (antibody, V domains shown) VH: EVQLVESGGAVVQPGGSLRLSCVASGLAFDEYTMHWVRQSSAKGLEWISLISWNGGITYYADSVKGRFTISRDNSKNSLYLQMNSLRTEDTATYFCARLGYGSGSDYGDDYWGQGTLVTVSS VL: ETTLTQSPGTLSLSPGERATLSCRASQSVSNNYLAWYQQKPGQAPRLLIHGASTRVTGIPARFSGSGSGTDFTLTISRLEPEDFAVYYCHQYHSSPRTFGQGTKVDIK", "Kd": 7.7},
      {"binder": "ADI-20978 (antibody, V domains shown) VH: EVQLVESGAEVKKPGASVKVSCKASGYTFGNYGISWVRQAPGQGLEWMGWISAYNGNSNYAQKFQGRVTMTTDTSASTAYMEVRSLRSDDTAVYYCARDVPVTAARLLDYWGQGTLVTVSS VL: DIVLTQTPLSLPVTLGQPASISCRSSQSLVYSDGNTYLSWFQQRPGQSPRRLIYKVSNRDSGVPDRFSGSGSGTDFTLKISRVEAEDVGVYYCMQATDWLGYTFGQGTKLEIK", "Kd": 0.319},
      {"binder": "ADI-21015 (antibody, V domains shown) VH: QVQLVQSGAEVKKPGASVRVSCKVPGNTLSDLSMHWVRHTPGEGLEWMGSFDPEYGETIPAQRFQGRVTMTEDTSTDTAYMELTSLRFEDTAVYYCAAPHASGALQHWGQGTLVTVSS VL: DIVMTQSPSSLSASVGDRVTITCRASQIISAYLNWYQQKAGKAPKLLIYAASSLQSGVPSRFSGSGSGTDFTLTISSLQPEDFATYYCQQTYITPFTFGQGTKLEIK", "Kd": 32.4},
      {"binder": "ADI-20998 (antibody, V domains shown) VH: QVQLVQSGGGVVQPGRSLRLSCAASGFTLSTYGMHWVRQAPGKGLEWVAVIYYDESNKFYADSVQGRFTISRDDSKNTLFLQMNSLRAEDTAVYYCARESRPRGYSYSDFDSWGQGTLVTVSS VL: QPGLTQPRSVSGSPGQSVTISCTGTSSDVGTFNYVSWYQQHPGKAPKLMIYDVNQRPSGVPDRFSGSKSGNTASLTISGLQAEDEADYYCCAYAGYYSFGGGTKLTVL", "Kd": 1.35},
      {"binder": "ADI-21018 (antibody, V domains shown) VH: EVQLLESGGGLVKPGGSLRLSCAGSGFTLSSYGMNWVRQAPGQGLEWISSISSSSSYINYADSVKGRFTISRDNAQNSLYLQLNSLRAEDTAVYYCARGGLGYDYGLGSYTYADYWGQGTLVTVSS VL: QSVVTQPPSVSGAPGQRVTISCTGSSSNTGAGYDIHWYQQLPGTGPKLLIYGNKNRPSGVPDRFSGSKSGTSASLAITGLQAEDEADYYCQSYDSSLSGWVFGGGTKVTVL", "Kd": 0.366},
      {"binder": "ADI-21028 (antibody, V domains shown) VH: EVQLVESGGALVKPGGSLRLSCVASGFTFSDYYMHWVRQAPGKGLEWVSYISSTSSFTNYADSVKGRFIISRDNAKNSLYLQLNSLRAEDTAVYYCARDESSGWQTRRHFGMDVWGQGTLVTVSS VL: EIVMTQSPSTLSASVGDRVTITCRASQSLNTWLAWYQHKPGKAPKLLISTASSLQSGVPSRFSASGSGTEFTLTISSLQPDDFATYYCQQFRGTFGPGTKVEIK", "Kd": 3.33},
      {"binder": "ADI-21058 (antibody, V domains shown) VH: QVQLQESGPGLVKPSETLSLTCTVSGGSISGTTYYWAWIRQPPGKGLEWIGTIFYSGSTYYNPSLQSRVTTSVDASKNQMSLRLSSVTAADTAMYYCARHTSIYDNLTGFYSHLTGVLDMWGQGTMVTVSS VL: not shown", "Kd": 0.515},
      {"binder": "ADI-21013 (antibody, V domains shown) VH: QVQLQESGPGVVKPSETLSLTCTVSGGSISNTHSYWGWIRQSPGKGLEWIGSIYYTGSTYYNPSFRSRVTLSVDTSKNQFSLKLSSVTAADTAVYYCAAPDYFVLTDYKSTFDYWGRGALVTVSS VL: DIVMTQSPGTLSLSPGGRATLSCRASQSVGSSSLAWYQQKPGQAPRLLIYGASSRAAGIPDRFSGSGSGTDFTLTINRLEPEDFAMYYCQQYGSSPLTFGGGTKVEIK", "Kd": 1.79},
      {"binder": "ADI-20980 (antibody, V domains shown) VH: QVQLQESGPGLVKPSQTLSLTCSVSGGSVSSGDYYWTWIRQPAGKGLEWIGRIYNSGGTDYSPSLKSRVTISVDTSKNQFSLKLSSVTAADTAVYYCARGRGYYESPWGQGTLVTVSS VL: EIVLTQSPATLSLSPGERATLSCRASQSVGIYIGWYQQKPGQAPRLLMYDASNRATGIPDRFSGSGSGTDFSLTISSLEPEDFAVYYCQLRSKWLTFGPGTKVEIK", "Kd": 0.542},
      {"binder": "ADI-21057 (antibody, V domains shown) VH: QVQLVQSGAEVKKPGESLKISCKASGYSLSNNWIAWVRQMPGKGLEWMGIVYLGDSDARYSPSFQGQVTFSADKSISTAYLQWSSLQASDTAMYFCARHHGDLVVTSDSRYFYGLDVWGQGTTVTVSS VL: not shown", "Kd": 0.86},
      {"binder": "ADI-21049 (antibody, V domains shown) VH: EVQLVESGGGLVKPGGSLRLSCSASGFAFSSYSMNWVRQAPGKGLEWVSSISASSSYIFYADSVKGRFTISRDNAKNSLYLQMNSLRAEDTAFYYCARALSPGYGDYRDYWGQGTLVTVSS VL: QSVVTQPPSVSGAPGQRVTISCTGSSSNIGAGYDVHWYQQLPGAAPKLLIYGNNNRPSGVPDRFSGSKSGTSASLAITGLQAEDEADFYCQSYDHNLSVVFGGGTKLTVL", "Kd": 1.27},
      {"binder": "ADI-20987 (antibody, V domains shown) VH: QVQLVQSGGGVVHPGRSLRLSCAASGFSFSDYGMHWVRQAPGKGLEWVAVIWYDGINKYYADSVKGRFAISRDNSKNTLYLQMNSLRAGDTAVYYCARGGIAAAQRYFDYWGQGTLVTVSS VL: ETTLTQSPGTLSLSPGERATLSCRASQTVSSSNLAWYQQKPGQAPRLLIYGASSRATGIPDRFSGSGSGTDFTLTISRLEPEDFAVYYCQQSGTSFGQGTKVDIK", "Kd": 35.6},
      {"binder": "ADI-20984 (antibody, V domains shown) VH: EVQLLETGAEVKKPGASVKVSCHVSGYGLTDLSMHWVRQAPGKRLQWMGSFDPQYGETIDTQNFQGRVTMTVDTSTATLYMQLSGLRSEDTAMYYCATPQSTGALDNWGQGTLVTVSS VL: DIRVTQSPSSLSASVGDRVTITCRASQSISSYLSWYQQKPGKAPRLVIFAASNLQSGVPSRFSGTGSSRFSDSGSWTDFTLTISSLQPEDFAIYYCQQTYITPFTFGQGTKVDIK", "Kd": 20.2},
      {"binder": "ADI-20966 (antibody, V domains shown) VH: EVQLLESGGGLGKPGGSLRLSCAASGFKLSSYYMHWVRQAPGKGPEWVSSISASSSYINYADSVRGRFTVSRDNAKNSLFLQMNSLRVDDTAIYYCARGAPLTNFGMVLDSWGQGTLVTVSS VL: QSVLTQPPSVSGAPGQRVTISCTGSGSNIGAGYDVHWYQQVPGRVPKLLIYANNNRPSGVPDRFSGSKSGTSASLAITGLQADDEADYYCQSYDRSLNVVFGGGTKLTVL", "Kd": 0.862}
    ]},
    {"molecular_target": "T1, RSV postfusion F (postF), subtype A (respiratory syncytial virus subtype A, UniProt P03420 26-513)", "T1 construct": "also called Postfusion subtype A; F deltaFP", "experiment": "BLI", "values": [
      {"binder": "ADI-19455 (antibody, V domains shown, full-length IgG) VH: EVQLVESGGGLVKPGGSLRLSCAASGFTFSSYSMNWVRQAPGKGLEWVSSISSSSSYIYYADSVKGRFTISRDNAKNSLYLQMNSLRAEDTAVYYCARSQSGSYYSSDYWGQGTLVTVSS VL: QSVLTQPPSVSGAPGQRVTISCTGSSSNIGAGYDVHWYQQLPGTAPKLLIYGNSNRPSGVPDRFSGSKSGTSASLAITGLQAEDEADYYCQSYDSSLSGWVFGGGTKVTVL", "binding result": "no binding"},
      {"binder": "ADI-25496 (antibody, V domains shown, full-length IgG) VH: QVQLVQSGGGLVKPGGSLRLSCAASGFTFSSYSMNWVRQAPGKGLEWVSSISSSSSYIYYADSVKGRFTISRDNAKNSLYLQMNSLRAEDTAVYYCARVASEVWFFDLWGRGTLVTVSS VL: QPVLTQPPSVSGAPGQRVTISCTGSSSNIGAGYDVHWYQQLPGTAPKLLIYGNSNRPSGVPDRFSGSKSGTSASLAITGLQAEDEADYYCQSYDSSLSGYVFGTGTKLTVL", "binding result": "no binding"},
      {"binder": "ADI-19429 (antibody, V domains shown) VH: EVQLQESGPGLVKPSETLSLTCTVSGGSISSSSYYWGWIRQPPGKGLEWIGSIYYSGSTYYNPSLKSRVTISVDTSKNQFSLKLSSVTAADTAVYYCARTPLYSYGRVVGFYYYGMDVWGQGTTVTVSS VL: QSVLTQPPSVSGAPGQRVTISCTGSSSNIGAGYDVHWYQQLPGTAPKLLIYGNSNRPSGVPDRFSGSKSGTSASLAITGLQAEDEADYYCQSYDSSLSGWVFGGGTKLTVL", "binding result": "no binding"},
      {"binder": "ADI-25595 (antibody, V domains shown, full-length IgG; also called Ab 464) VH: EVQLVESGGGLVKPGGSLRLSCAASGFTFSSYSMNWVRQAPGKGLEWVSSISSSSSYIYYADSVKGRFTISRDNAKNSLYLQMNSLRAEDTAVYYCARYQSSSWYYFDYWGQGTLVTVSS VL: SYVLTQPPSVSGAPGQRVTISCTGSSSNIGAGYDVHWYQQLPGTAPKLLIYGNSNRPSGVPDRFSGSKSGTSASLAITGLQAEDEADYYCQSYDSSLSGVVFGGGTKLTVL", "binding result": "no binding"},
      {"binder": "ADI-19441 (antibody, V domains shown, full-length IgG) VH: QVQLVQSGAEVKKPGSSVKVSCKASGGTFSSYAISWVRQAPGQGLEWMGRIIPILGIANYAQKFQGRVTITADKSTSTAYMELSSLRSEDTAVYYCARGPLTGYSSSWFDPWGQGTLVTVSS VL: EIVMTQSPSSLSASVGDRVTITCRASQSISSYLNWYQQKPGKAPKLLIYAASSLQSGVPSRFSGSGSGTDFTLTISSLQPEDFATYYCQQSYSTLPYTFGQGTKVEIK", "binding result": "no binding"},
      {"binder": "ADI-25588 (antibody, V domains shown, full-length IgG) VH: EVQLVESGGGLVKPGGSLRLSCAASGFTFSSYSMNWVRQAPGKGLEWVSSISSSSSYIYYADSVKGRFTISRDNAKNSLYLQMNSLRAEDTAVYYCARYSSSLGAFDIWGQGTTVTVSS VL: QSVLTQPPSVSGAPGQRVTISCTGSSSNIGAGYDVHWYQQLPGTAPKLLIYGNSNRPSGVPDRFSGSKSGTSASLAITGLQAEDEADYYCQSYDSSLSDVFGTGTKVTVL", "binding result": "no binding"},
      {"binder": "ADI-22767 (antibody, V domains shown, full-length IgG) VH: QVQLVESGGGLVKPGGSLRLSCAASGFTFSSYSMNWVRQAPGKGLEWVSSISSSSSYIYYADSVKGRFTISRDNAKNSLYLQMNSLRAEDTAVYYCAREANWGVAFDIWGQGTMVTVSS VL: QSVVTQPPSVSGAPGQRVTISCTGSSSNIGAGYDVHWYQQLPGTAPKLLIYGNSNRPSGVPDRFSGSKSGTSASLAITGLQAEDEADYYCQSYDSSLSYVFGTGTKVTVL", "binding result": "no binding"},
      {"binder": "ADI-19435 (antibody, V domains shown, full-length IgG) VH: QVQLQESGPGLVKPSQTLSLTCTVSGGSISSGSYYWSWIRQPAGKGLEWIGRIYTSGSTNYNPSLKSRVTISVDTSKNQFSLKLSSVTAADTAVYYCAREGRGGAFDIWGQGTLVTVSS VL: SYELTQPPSVSVSPGQTARITCSADALPKQYAYWYQQKPGQAPVLVIYKDSERPSGIPERFSGSSSGTTVTLTISGVQAEDEADYYCQSADSSGTYVVFGGGTQLTVL", "binding result": "no binding"}
    ]}
  ]
}
